Test results reported in article PMC2939592, “Laser ablation-based one-step generation and bio-functionalization of gold nanoparticles conjugated with aptamers”.

Target: PSMA (prostate-specific membrane antigen) (human, UniProt Q04609 1-750)
Test: tissue microarray staining with silver enhancement; 1 mM MgCl2, 1 mM CaCl2; epithelial staining similar to anti-PSMA antibody; extra smooth muscle staining; miniStrep: 50 mM Tris-Cl pH 8.0, 150 mM NaCl, 10 mM MgCl2, room temperature (16 h in solution); anti-PSMA: 20 mM HEPES pH 7.4, 150 mM NaCl, 1 mM MgCl2, 1 mM CaCl2, 0.05% Tween 20, 20 C
Conditions: protein: native; chain copies: 2; label: AuNP

Sequence of PSMA (prostate-specific membrane antigen) (Q04609 whole entry): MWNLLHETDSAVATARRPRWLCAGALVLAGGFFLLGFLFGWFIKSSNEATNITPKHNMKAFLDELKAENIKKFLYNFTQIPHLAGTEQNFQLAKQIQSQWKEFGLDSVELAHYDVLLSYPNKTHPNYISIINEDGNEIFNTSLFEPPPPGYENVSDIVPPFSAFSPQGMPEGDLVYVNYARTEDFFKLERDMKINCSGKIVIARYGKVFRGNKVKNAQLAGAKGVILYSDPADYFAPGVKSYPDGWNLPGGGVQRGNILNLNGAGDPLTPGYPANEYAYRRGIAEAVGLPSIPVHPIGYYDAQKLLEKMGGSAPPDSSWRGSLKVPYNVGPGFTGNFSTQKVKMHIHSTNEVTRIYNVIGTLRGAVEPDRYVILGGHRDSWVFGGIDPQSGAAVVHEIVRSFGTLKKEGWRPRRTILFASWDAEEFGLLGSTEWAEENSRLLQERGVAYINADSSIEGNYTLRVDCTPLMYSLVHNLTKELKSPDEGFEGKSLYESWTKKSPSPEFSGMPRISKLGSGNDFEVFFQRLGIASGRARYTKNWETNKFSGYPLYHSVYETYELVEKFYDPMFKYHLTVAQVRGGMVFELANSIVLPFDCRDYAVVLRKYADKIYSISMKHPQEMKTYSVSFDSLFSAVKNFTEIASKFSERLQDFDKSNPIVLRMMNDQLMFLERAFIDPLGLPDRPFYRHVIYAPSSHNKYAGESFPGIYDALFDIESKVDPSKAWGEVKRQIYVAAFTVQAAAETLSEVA

B1: anti-PSMA aptamer on AuNP (structured_RNA)
RNA: GGGAGGACGAUGCGGAUCAGCCAUGUUUACGUCACUCCUUGUCAAUCCUCAUCGGCAGACGACUCGCCCGA
modifications: 3'-(CH2CH2O)6-(CH2)6-S-S-(CH2)6OH, conjugated to gold nanoparticle; base/sugar modifications not stated
- binding result: binds
